Source: patent publication US20040018972A1 (TRILLIUM THERAPEUTICS, published 2004)

What was measured:
[1] = target: T1, OX-2 (CD200) on mouse dendritic cells (mouse, UniProt O54901 31-278); experiment: co-capping: DC pre-incubated with SH1.2.47 and anti-rat Ig at 37 C, then FACS staining of the other surface molecules
T1 construct: whole, on cells
T1 sequence (looked up): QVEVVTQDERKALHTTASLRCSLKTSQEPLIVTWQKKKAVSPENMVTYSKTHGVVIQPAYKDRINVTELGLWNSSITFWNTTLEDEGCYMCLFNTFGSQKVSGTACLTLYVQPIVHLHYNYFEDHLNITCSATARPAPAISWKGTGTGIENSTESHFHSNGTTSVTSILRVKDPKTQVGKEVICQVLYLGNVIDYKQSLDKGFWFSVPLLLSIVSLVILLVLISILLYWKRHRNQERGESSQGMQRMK
Experimental: (§1) FIG. 3 is FACS analysis of the effect of pretreatment of DC with anti-MD-1 antibody on cell surface expression of molecules on dendritic cells. Cells in the columns shown were preincubated (60 minutes at 4° C.) in medium, rat anti-DC26, or anti-MD-1 (SH1.2.47), prior to washing and incubation at 37° C. with anti-rat Ig. Thereafter cells were stained with different mAbs as in FIG. 2.

[2] = target: T2, CD86 (B7-2) on mouse dendritic cells (mouse, UniProt P42082 24-309); experiment: as above
T2 construct: whole, on cells
T2 sequence (looked up): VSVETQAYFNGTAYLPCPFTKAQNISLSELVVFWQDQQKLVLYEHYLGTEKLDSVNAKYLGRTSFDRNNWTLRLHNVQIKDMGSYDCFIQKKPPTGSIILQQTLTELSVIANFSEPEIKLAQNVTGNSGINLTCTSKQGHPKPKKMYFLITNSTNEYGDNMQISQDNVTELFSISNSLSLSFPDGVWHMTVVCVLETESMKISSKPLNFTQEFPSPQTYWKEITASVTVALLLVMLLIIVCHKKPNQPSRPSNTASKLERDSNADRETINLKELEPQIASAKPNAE
Experimental: as §1

[3] = target: T3, DEC205 on mouse dendritic cells (mouse, UniProt Q60767 28-1723); experiment: as above
T3 construct: whole, on cells
Experimental: as §1

[4] = target: T4, CD80 (B7-1) on mouse dendritic cells (mouse, UniProt Q00609 38-306); experiment: as above
T4 construct: whole, on cells
T4 sequence (looked up): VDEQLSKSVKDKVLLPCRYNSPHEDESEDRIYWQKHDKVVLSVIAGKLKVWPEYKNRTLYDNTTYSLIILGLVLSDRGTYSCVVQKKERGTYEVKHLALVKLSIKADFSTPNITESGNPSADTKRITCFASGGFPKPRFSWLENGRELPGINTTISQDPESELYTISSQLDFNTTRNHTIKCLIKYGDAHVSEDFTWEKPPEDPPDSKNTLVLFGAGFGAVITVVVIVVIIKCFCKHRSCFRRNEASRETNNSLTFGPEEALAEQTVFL
Experimental: as §1

[5] = target: T5, CD14 on mouse dendritic cells (mouse, UniProt P10810 16-336); experiment: co-capping on DC: anti-CD14 staining reduced after capping of MD-1 with SH1.2.47 (FACS)
T5 construct: whole, on cells
T5 sequence (looked up): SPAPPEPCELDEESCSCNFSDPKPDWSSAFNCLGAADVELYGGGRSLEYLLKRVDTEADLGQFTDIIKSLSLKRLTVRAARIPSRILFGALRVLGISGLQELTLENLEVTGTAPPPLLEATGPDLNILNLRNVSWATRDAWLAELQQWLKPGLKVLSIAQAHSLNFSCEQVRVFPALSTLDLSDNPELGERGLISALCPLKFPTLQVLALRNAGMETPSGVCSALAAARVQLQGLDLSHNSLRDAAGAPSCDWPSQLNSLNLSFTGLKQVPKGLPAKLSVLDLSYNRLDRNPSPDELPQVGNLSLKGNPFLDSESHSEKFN
Experimental: as §1

T3 sequence (Q60767 28-1723): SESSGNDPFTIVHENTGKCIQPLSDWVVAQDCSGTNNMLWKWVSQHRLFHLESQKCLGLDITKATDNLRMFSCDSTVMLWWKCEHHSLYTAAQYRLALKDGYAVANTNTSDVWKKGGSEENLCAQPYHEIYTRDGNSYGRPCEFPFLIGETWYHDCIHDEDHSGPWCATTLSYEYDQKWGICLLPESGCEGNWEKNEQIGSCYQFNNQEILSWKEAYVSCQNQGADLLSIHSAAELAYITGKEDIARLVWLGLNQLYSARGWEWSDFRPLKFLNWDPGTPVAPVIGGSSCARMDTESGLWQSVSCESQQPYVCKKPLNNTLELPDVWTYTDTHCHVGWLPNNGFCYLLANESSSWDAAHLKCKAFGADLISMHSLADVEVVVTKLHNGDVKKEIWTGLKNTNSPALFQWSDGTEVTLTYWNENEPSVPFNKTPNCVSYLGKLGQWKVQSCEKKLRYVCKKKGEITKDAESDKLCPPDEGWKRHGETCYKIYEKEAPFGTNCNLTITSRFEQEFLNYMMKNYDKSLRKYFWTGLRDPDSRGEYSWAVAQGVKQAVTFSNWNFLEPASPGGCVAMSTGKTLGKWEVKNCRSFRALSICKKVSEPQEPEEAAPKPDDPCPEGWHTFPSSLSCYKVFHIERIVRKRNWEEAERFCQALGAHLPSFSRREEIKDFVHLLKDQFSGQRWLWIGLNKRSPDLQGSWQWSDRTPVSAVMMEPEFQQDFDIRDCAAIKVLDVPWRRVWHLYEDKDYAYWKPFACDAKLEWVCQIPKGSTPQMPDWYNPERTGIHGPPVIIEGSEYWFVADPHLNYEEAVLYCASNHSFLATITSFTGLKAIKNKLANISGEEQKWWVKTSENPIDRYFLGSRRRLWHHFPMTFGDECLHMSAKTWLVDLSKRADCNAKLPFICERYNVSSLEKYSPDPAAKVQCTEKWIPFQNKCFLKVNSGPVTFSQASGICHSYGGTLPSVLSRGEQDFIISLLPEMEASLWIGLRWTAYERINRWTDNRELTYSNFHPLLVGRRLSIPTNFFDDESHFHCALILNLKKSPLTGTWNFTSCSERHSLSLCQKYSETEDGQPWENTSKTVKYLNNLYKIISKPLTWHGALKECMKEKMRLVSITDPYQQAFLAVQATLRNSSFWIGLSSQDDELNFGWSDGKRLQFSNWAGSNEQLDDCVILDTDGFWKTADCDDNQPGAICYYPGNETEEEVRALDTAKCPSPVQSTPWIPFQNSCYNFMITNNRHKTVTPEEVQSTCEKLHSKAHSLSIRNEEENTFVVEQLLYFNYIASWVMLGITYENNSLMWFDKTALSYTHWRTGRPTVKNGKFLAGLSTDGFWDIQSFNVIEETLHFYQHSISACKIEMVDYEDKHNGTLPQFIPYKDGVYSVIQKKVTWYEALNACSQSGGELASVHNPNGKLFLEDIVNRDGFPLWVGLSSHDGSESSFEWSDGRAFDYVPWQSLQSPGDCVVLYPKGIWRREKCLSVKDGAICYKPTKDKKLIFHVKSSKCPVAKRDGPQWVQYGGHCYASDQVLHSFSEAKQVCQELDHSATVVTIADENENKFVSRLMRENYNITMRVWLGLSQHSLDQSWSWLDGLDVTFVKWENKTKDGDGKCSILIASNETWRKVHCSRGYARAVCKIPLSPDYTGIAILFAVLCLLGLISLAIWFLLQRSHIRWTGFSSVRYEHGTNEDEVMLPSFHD

B1: murine MD-1 (other, UniProt O88188 20-162, looked up)
chain: DHGSENGWPKHTACNSGGLEVVYQSCDPLQDFGLSIDQCSKQIQSNLNIRFGIILRQDIRKLFLDITLMAKGSSILNYSYPLCEEDQPKFSFCGRRKGEQIYYAGPVNNPGLDVPQGEYQLLLELYNENRATVACANATVTSS
notes: whole, on cells; also called mouse MD-1
[1]
  binding result: no binding
[2]
  binding result: no binding
[3]
  binding result: no binding
[4]
  binding result: no binding
[5]
  binding result: binds
